Source: patent US20230295324A1 (published 2023)

What was measured:
[1] = target: T1, human OX40 on cells (CHO-K1/hu OX40) (human, UniProt P43489 29-277); experiment: cell-based or functional assay
T1 sequence (looked up): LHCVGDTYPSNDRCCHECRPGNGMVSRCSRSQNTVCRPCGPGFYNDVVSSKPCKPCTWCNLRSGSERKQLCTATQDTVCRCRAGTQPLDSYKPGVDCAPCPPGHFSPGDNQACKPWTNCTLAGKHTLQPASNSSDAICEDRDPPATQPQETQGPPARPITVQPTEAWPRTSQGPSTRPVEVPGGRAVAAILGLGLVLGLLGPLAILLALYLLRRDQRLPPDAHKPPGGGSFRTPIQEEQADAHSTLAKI

[2] = target: T1, human OX40 on cells (CHO-K1/hu OX40); experiment: FACS, CHO-K1/hu OX40 cells
Procedure: This example is intended to investigate the in vitro binding activity of anti-human OX40 HCAb monoclonal antibodies to human OX40. The antibody binding assay at the cellular level was performed using a stable CHO-K1 cell strain overexpressing human OX40 (CHO-K1/hu OX40). Briefly, the CHO-K1/hu OX40 cells were digested, resuspended in an F12K complete medium and washed once with PBS. The cell density was adjusted to 1×10⁶ cells/mL with PBS. The cells were seeded in a 96-well V-bottom plate (Corning, #3894) at 100 μL/well, and centrifuged, and then the supernatant was discarded. Then, the test antibodies diluted in a 3-fold gradient at concentrations that were 2 times the final concentrations were added at 100 μL/well. The cells were incubated at 4° C. for 1 h away from light. Thereafter, the cells in each well were rinsed twice with 100 μL of pre-cooled PBS, and centrifuged at 500 g at 4° C. for 5 min, and then the supernatant was discarded. […] The plate was incubated away from light at 4° C. for 30 min. The cells in each well were rinsed twice with 100 μL of pre-cooled PBS, and centrifuged at 500 g at 4° C. for 5 min, and then the supernatant was discarded. Finally, the cells in each well were resuspended in 200 μL of pre-cooled PBS, and the fluorescence signal values were read using a BD FACS CANTOII.

[3] = target: T2, cynomolgus monkey OX40 protein (Novoprotein, #CB17) (cynomolgus monkey); experiment: ELISA, coated cyno OX40 protein
T2 construct: Bought recombinant protein; also called cyno OX40
Procedure: (§1) This example is intended to investigate the in vitro binding activity of the anti-OX40 HCAb monoclonal antibodies prepared in Example 1 to human and cynomolgus monkey OX40 proteins. The antibody binding assay at the protein level was performed using a human OX40 protein (Acro biosystem, #OX0-H5224) and a cynomolgus monkey OX40 protein (Novoprotein, #CB17). Briefly, a 384-well plate (PerkinElmer, #6007509) was coated with 1 μg/mL human OX40 protein and a cynomolgus monkey OX40 protein dissolved in PBS at 20 μL/well, and incubated at 4° C. overnight. The next day, the 384-well plate was washed three times with PBS containing 0.05% Tween (MEDICAGO, #09-9410-100), and blocked with PBS containing 2% milk (Bio-Rad, #170-6404) at 37° C. for 1 h. […] The plate was added with a stop buffer (BBI life sciences, #E661006-0200) at 20 μL/well, and read for OD₄₅₀₋₆₅₀ values using a plate reader (Molecular Devices, model: SpectraMax Plus). The values were analyzed with Graphad 8.0 and plotted.

[4] = target: T3, human OX40 protein (Acro biosystem, #OX0-H5224) (human, UniProt P43489 29-216); experiment: ELISA, coated human OX40 protein
T3 construct: Bought recombinant protein
T3 sequence (looked up): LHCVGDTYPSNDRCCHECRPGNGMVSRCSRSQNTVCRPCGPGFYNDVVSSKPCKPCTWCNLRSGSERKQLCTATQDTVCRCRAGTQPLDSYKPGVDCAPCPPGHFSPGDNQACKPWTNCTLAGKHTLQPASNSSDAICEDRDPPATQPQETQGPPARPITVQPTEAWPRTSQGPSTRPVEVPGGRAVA
Procedure: as §1

[5] = target: T3, human OX40 protein (Acro biosystem, …); experiment: BLI, antibody on ProA sensor, 1:1 global fit
Procedure: (§2) The binding kinetics between the antigen and the antibody was analyzed by the Biolayer Interferometry (BLI) technique using an Octet Red 96e molecular interaction analyzer (Fortebio).
(§3) The association and dissociation signals between the OX40 antibodies and OX40 proteins were recorded by Octet Red 96 in real time. When data analysis was performed using Octet Data Analysis software (Fortebio, version 11.0), 0 nM was used as a reference hole, and reference subtraction was performed; the “1:1 Global fitting” method was selected to fit the data, and the kinetics parameters of the binding of antigens to antigen-binding proteins were calculated, with kon(1/Ms) values, kdis(1/s) values and KD(M) values obtained.

[6] = target: T2, cynomolgus monkey OX40 protein …; experiment: BLI, antibody on ProA sensor, 1:1 global fit
Procedure: as §2, §3

[7] = target: T1, human OX40 on cells (CHO-K1/hu OX40); experiment: FACS, blocking of biotin-human OX40L on CHO-K1/hu OX40 cells
Procedure: Briefly, the CHO-K1/hu OX40 cells were digested and resuspended in an F-12K complete medium, and the cell density was adjusted to 1×10⁶ cells/mL. The cells were seeded in a 96-well V-bottom plate (Corning, #3894) at 100 μL/well, and centrifuged, and then the supernatant was discarded. The test antigen-binding proteins diluted in a 3-fold gradient at concentrations that were 2 times the final concentrations were added at 100 μL/well, and the mixture was well mixed, wherein the antigen-binding protein had the highest final concentration of 100 nM, and a total of 8 concentrations were obtained. […] The cells were incubated at 4° C. for 1 h away from light. Thereafter, the cells were centrifuged at 4° C. for 5 min, and then the supernatant was discarded. […] The cells in each well were rinsed twice with 100 μL of pre-cooled PBS, and centrifuged at 500 g at 4° C. for 5 min, and then the supernatant was discarded. A 1:200 fluorescent secondary antibody PE Streptavidin (BD Biosciences, #554061) was added at 100 μL/well, and the cells were incubated away from light at 4° C. for 30 min. The cells in each well were rinsed twice with 200 μL of pre-cooled PBS, and centrifuged at 500 g at 4° C. for 5 min, and then the supernatant was discarded. Finally, the cells in each well were resuspended in 200 μL of precooled PBS. Fluorescence signal values were read using BD FACS CANTOII, and IC50 was calculated. Inhibition rate %={average MFI of non-blocking control well−MFI value of OX40 antibody}/{(average MFI of non-blocking control well)−average MFI of 100% blocking control well)}×100%.

B1: PR002063 (antibody, human IgG1, V domains shown)
VH: EVQLLESGGGLVQPGGSLRLSCAASGFTFSSYAMSWVRQAPGRGLEWVSAISGGGGSTFYADSVRGRFTISRDNSKNTLYLQMSSLRAEDTAVYYCANGMTGTTDVDYWGQGTRVTVSS
notes: no light chain; also called anti-OX40 HCAb antibody
EC50, HEK293/OX40/NF-kb luciferase reporter [1]: 8.64 nM | Maximum fluorescence signal value, HEK293/OX40/NF-kb luciferase reporter [1]: 150000 luminescence | EC50 [2]: 9 nM | Maximum MFI [2]: 2240 MFI | EC50 [3]: 0.276 nM | Maximum OD [3]: 2.32 OD | EC50 [4]: 0.101 nM | Maximum OD [4]: 2.28 OD | Kd [5]: 13 nM | koff [5]: 0.000511 s⁻¹ | kon [5]: 39200 M⁻¹ s⁻¹ | Kd [6]: 53.4 nM | koff [6]: 0.00192 s⁻¹ | kon [6]: 36000 M⁻¹ s⁻¹ | Maximum inhibition rate (%) [7]: 17%

B2: PR002065 (antibody, human IgG1, V domains shown)
VH: EVQLVESGGGLVQPGGSLRLSCAASGFTFSSYAMSWVRQAPGKGLEWVSAISGRGDITFYADSVRGRFTISRDNSKNTLYLQMNSLRAEDTALYYCANGMTGSTDVDFWGQGTLVTVSS
notes: as for B1
EC50, HEK293/OX40/NF-kb luciferase reporter [1]: 8.55 nM | Maximum fluorescence signal value, HEK293/OX40/NF-kb luciferase reporter [1]: 149000 luminescence | EC50 [2]: 3.82 nM | Maximum MFI [2]: 2860 MFI | EC50 [3]: 0.103 nM | Maximum OD [3]: 1.92 OD | EC50 [4]: 0.0639 nM | Maximum OD [4]: 2.47 OD | Kd [5]: 6.79 nM | koff [5]: 0.000337 s⁻¹ | kon [5]: 49600 M⁻¹ s⁻¹ | Kd [6]: 33.7 nM | koff [6]: 0.00104 s⁻¹ | kon [6]: 30800 M⁻¹ s⁻¹ | IC50 [7]: 49.6 nM | Maximum inhibition rate (%) [7]: 44%

B3: PR002076 (antibody, human IgG1, V domains shown)
VH: EVQLLESGGGLVQPGGSLRLSCAASGFTFSSYAMSWVRQAPGKGLEWVSAISGSGGNTYYADSVRGRFTISRDNSKNTLYLQMNSLRAEDTAVYYCANGMTGTTDVDYWGQGTRVTVSS
notes: as for B1
EC50, HEK293/OX40/NF-kb luciferase reporter [1]: 67 nM | Maximum fluorescence signal value, HEK293/OX40/NF-kb luciferase reporter [1]: 141000 luminescence | EC50 [2]: 24.6 nM | Maximum MFI [2]: 1380 MFI | EC50 [3]: 0.116 nM | Maximum OD [3]: 2.05 OD | EC50 [4]: 0.065 nM | Maximum OD [4]: 2.8 OD | Maximum inhibition rate (%) [7]: 0%

B4: PR002071 (antibody, human IgG1, V domains shown)
VH: EVQLVESGGGLVQPGGSLRLSCAASGFTFSSYAMSWVRQAPGKGLEWVSAISGGGGSIFYADSVRGRFTISRDNSKNTLYLQMNSLRAEDTAVYYCANGMTGTTDVDYWGQGTLVTVSS
notes: as for B1
EC50, HEK293/OX40/NF-kb luciferase reporter [1]: 7.85 nM | Maximum fluorescence signal value, HEK293/OX40/NF-kb luciferase reporter [1]: 144000 luminescence | EC50 [2]: 4 nM | Maximum MFI [2]: 3060 MFI | EC50 [3]: 0.202 nM | Maximum OD [3]: 2.93 OD | EC50 [4]: 0.0502 nM | Maximum OD [4]: 2.45 OD | IC50 [7]: 51.7 nM | Maximum inhibition rate (%) [7]: 50%

B5: PR002072 (antibody, human IgG1, V domains shown)
VH: EVQLLESGGGLVQPGGSLRLSCAASGFTFSSYAMSWVRQASGKGLEWISAISGSGGSTYYADSVRGRFTISRDNSKNTLYLQMNSLRADDTAVYYCANGMTGTTDVDFWGQGTPVTVSS
notes: as for B1
EC50, HEK293/OX40/NF-kb luciferase reporter [1]: 14.2 nM | Maximum fluorescence signal value, HEK293/OX40/NF-kb luciferase reporter [1]: 99600 luminescence | EC50 [2]: 5.64 nM | Maximum MFI [2]: 1400 MFI | EC50 [3]: 0.217 nM | Maximum OD [3]: 2.97 OD | EC50 [4]: 0.0577 nM | Maximum OD [4]: 2.47 OD | Maximum inhibition rate (%) [7]: 14%

B6: PR002058 (antibody, human IgG1, V domains shown)
VH: EVQLLESGGGLVQPGGSLRLSCAASGFTFSSYAMSWVRQAPGKGLEWVSAISGGSGSTFYADSVRGRFTISRDNSKNTLYLQMNSLRAEDTAVYYCADGVTGTDFDFWGQGTLVTVSS
notes: as for B1
EC50, HEK293/OX40/NF-kb luciferase reporter [1]: 4.29 nM | Maximum fluorescence signal value, HEK293/OX40/NF-kb luciferase reporter [1]: 136000 luminescence | EC50 [2]: 5.79 nM | Maximum MFI [2]: 3560 MFI | EC50 [3]: 0.0597 nM | Maximum OD [3]: 1.76 OD | EC50 [4]: 0.0629 nM | Maximum OD [4]: 1.94 OD | IC50 [7]: 98.1 nM | Maximum inhibition rate (%) [7]: 38%

B7: PR002073 (antibody, human IgG1, V domains shown)
VH: EVQLVESGGGLVQPGGSLRLSCAASGFTFSSYAMSWVRQAPGKGLEWVSAISGGSGSTFYADSVRGRFTISRDNSKNTLYLQMNSLRAEDTAVYYCADGVTGTDFDFWGQGTLVTVSS
notes: as for B1
EC50, HEK293/OX40/NF-kb luciferase reporter [1]: 6.39 nM | Maximum fluorescence signal value, HEK293/OX40/NF-kb luciferase reporter [1]: 121000 luminescence | EC50 [2]: 6.55 nM | Maximum MFI [2]: 3260 MFI | EC50 [3]: 0.146 nM | Maximum OD [3]: 2.55 OD | EC50 [4]: 0.085 nM | Maximum OD [4]: 2.38 OD | IC50 [7]: 75.2 nM | Maximum inhibition rate (%) [7]: 24%

B8: Pogalizumab analog (PR003475) (antibody, human IgG1, kappa, V domains shown)
VH: EVQLVQSGAEVKKPGASVKVSCKASGYTFTDSYMSWVRQAPGQGLEWIGDMYPDNGDSSYNQKFRERVTITRDTSTSTAYLELSSLRSEDTAVYYCVLAPRWYFSVWGQGTLVTVSS
VL: DIQMTQSPSSLSASVGDRVTITCRASQDISNYLNWYQQKPGKAPKLLIYYTSRLRSGVPSRFSGSGSGTDFTLTISSLQPEDFATYYCQQGHTLPPTFGQGTKVEIKR
notes: Conventional IgG antibody; also called Tab
EC50 [3]: 0.194 nM | Maximum OD [3]: 2.23 OD | Kd [6]: 0.0894 nM

B9: PR002074 (antibody, human IgG1, V domains shown)
VH: EVQLLESGGGLVQPGGSLRLSCAASGFTFSSYAMSWVRQAPGKGLEWVSGISGGGNNTFYADSVRGRFTISRDNSKNTLYLQMNSLRAEDTAVYYCMRGWELPLLENWGQGTLVTVSS
notes: as for B1
EC50, HEK293/OX40/NF-kb luciferase reporter [1]: 3.08 nM | Maximum fluorescence signal value, HEK293/OX40/NF-kb luciferase reporter [1]: 84800 luminescence | EC50 [2]: 1.27 nM | Maximum MFI [2]: 3540 MFI | EC50 [3]: 0.14 nM | Maximum OD [3]: 2.34 OD | EC50 [4]: 0.0512 nM | Maximum OD [4]: 2.35 OD | IC50 [7]: 43.1 nM | Maximum inhibition rate (%) [7]: 81%
